Assay results reported in PMC9177745 (Biochemistry, 2022).

What was measured:
[1] = target: T1, PhnY (in the 1:1 PhnY/Z system) (uncultured bacterium HF130_AEPn_1, UniProt D0E8I4); test: steady-state kinetics of the coupled PhnY/Z system; assay type: biochemical; conditions: two-enzyme PhnY/Z system; apparent Km of the system
T1 sequence (D0E8I4 1-262): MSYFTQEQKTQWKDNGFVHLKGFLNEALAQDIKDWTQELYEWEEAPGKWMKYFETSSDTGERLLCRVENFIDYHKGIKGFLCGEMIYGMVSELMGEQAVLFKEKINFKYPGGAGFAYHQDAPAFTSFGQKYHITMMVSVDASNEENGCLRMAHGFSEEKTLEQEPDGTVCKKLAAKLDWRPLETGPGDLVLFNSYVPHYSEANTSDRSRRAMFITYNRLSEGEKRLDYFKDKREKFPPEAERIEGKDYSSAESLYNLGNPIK

[2] = substrate: NC[C@H](O)P(=O)(O)O; test: steady-state kinetics, C-P bond cleavage; assay type: biochemical, Fonsecaea multimorphosa; conditions: O2; mixed-valent diiron HD-domain site
[3] = substrate: NCCCP(=O)(O)O; test: steady-state kinetics, conversion to inorganic phosphate; assay type: biochemical, Fonsecaea multimorphosa; conditions: two-step reaction to phosphate; co-substrates presumably as for 2AEP
[4] = substrate: NCCP(=O)(O)O; test: as above; assay type: biochemical, Fonsecaea multimorphosa; conditions: O2, alpha-ketoglutarate, Fe(II), ascorbate; apparent Km of the two-step reaction
[5] = substrate: NC[C@H](O)P(=O)(O)O; test: steady-state kinetics, C-P bond cleavage; assay type: biochemical, uncultured bacterium HF130_AEPn_1; conditions: O2; mixed-valent diiron site

For `NCCCP(=O)(O)O` [3APP], the KM [1] was “the PhnY/Z system is also able to act on 3APP”.

B1: PhoF (Fonsecaea multimorphosa CBS 102226) (protein)
chain: MSVPEEQMQFFRKNGYLILRNVLSEEETKDLQRWAQEVHDWPTDANSPWMPYEEINAQGQTVLCRTENYANSHAGLNGLLRGQKLLNLLKQLSGEDMLLFKEKINYKLAGSGGFAPHVDSTAYTHIKNIKHLAILLAVDPSDMSNGGLEVVEGSHEMNVPIGEDNCIEPDWVKQQKWTPVELKAGQVLVFGSYLAHRSGANHSNQDRKALYATYNCAREGDLHDEYYAHRKVVWPPAQLRKKGEEYKVGALVYGFGSPMLSVDAGKQLEFDEEEWKSKPRAAKAASRIIDILNQYGNSDYIGEPISQIEHSLQCAYLAAQNMADPQTVAAALLHDIGQIIPERDAEHILGGAQVRSMRQNSGIGADSRSSDSVGRVSHETLGAQYLLALGFPAKVAELVEAHVPAKRYLCATEKGYYSTLSDASKESLRFQGGPMSPDEVRLWQEGSWADEKANLRRWDDGAKVVGLTVPGLETYRPVLEQVLSS
Work on B1 yielded a Km [2] of 43 ± 23 µM, a kcat [2] of 9 ± 2 s⁻¹ and a Km [3] of 305 ± 263 µM. It also gave a kcat [3] of 0.57 ± 0.30 s⁻¹, a Km [4] of 197 ± 73 µM and a kcat [4] of 1.16 ± 0.17 s⁻¹.

B2: PhnZ (uncultured bacterium HF130_AEPn_1) (protein)
chain: MSLSNSSKVSVLISLLEKSRDLDYIGEAINQLEHSLQCAYFAQRSGADNEMVLAALLHDLGHYCNDTSFEDMGGYGVWQHEKVGADYLRGLGFSERVACLIEGHVAAKRYLVSSKASYLKNLSDASRKTLEYQGGPMDEGERRLFEEREDFKDCLKIRAWDEKGKQTDLKVPGPEHYRKMMEEHLSENQN
Molecule B2 has a Km [5] of 107 ± 29 µM and a kcat [5] of 15 ± 3 s⁻¹.
